Data: article PMC5491494

Molecular target: hnRNPA1, endogenous, P09651
Assay: cross-linking; DSG cross-linking, sample not named in the text (Supplementary Fig. 2a); nucleo-cytoplasmic fractionation; immunoblot, 4–12% denaturing polyacrylamide gels
Settings: remark: other sources report otherwise

stoichiometry N: 2
B1: hnRNPA1, endogenous, P09651 1-372 (natural protein)
chain: MSKSESPKEPEQLRKLFIGGLSFETTDESLRSHFEQWGTLTDCVVMRDPNTKRSRGFGFVTYATVEEVDAAMNARPHKVDGRVVEPKRAVSREDSQRPGAHLTVKKIFVGGIKEDTEEHHLRDYFEQYGKIEVIEIMTDRGSGKKRGFAFVTFDDHDSVDKIVIQKYHTVNGHNCEVRKALSKQEMASASSSQRGRSGSGNFGGGRGGGFGGNDNFGRGGNFSGRGGFGGSRGGGGYGGSGDGYNGFGNDGGYGGGGPGYSGGSRGYGSGGQGYGNQGSGYGGSGSYDSYNNGGGGGFGGGSGSNFGGGGSYNDFGNYNNQSSNFGPMKGGNFGGRSSGPYGGGGQYFAKPRNQGGYGGSSSSSSYGSGRRF
